Source: publication PMC8933513 (2022)
Values joined by “and” are separate entries in the source; they are usually repeats but may differ in a detail not shown here. Identical values can stand only once.

What was measured:
Assay in all cases: SPR; BIAcore X-100, room temperature; hAPN/pAPN WT or mutant immobilised on CM5 chips via amine coupling; serially diluted PDCoV RBD WT or mutant flowed over in HEPES buffer (0.01 M HEPES, 0.15 M NaCl, 0.5% surfactant P20, 3 mM EDTA, pH 7.4); steady-state affinity model; each of two experiments listed
[1] = biological target: porcine aminopeptidase N ectodomain W424A (pig) (UniProt P15145)
porcine aminopeptidase N ectodomain W424A (pig), sequence (P15145 58-961 W424A): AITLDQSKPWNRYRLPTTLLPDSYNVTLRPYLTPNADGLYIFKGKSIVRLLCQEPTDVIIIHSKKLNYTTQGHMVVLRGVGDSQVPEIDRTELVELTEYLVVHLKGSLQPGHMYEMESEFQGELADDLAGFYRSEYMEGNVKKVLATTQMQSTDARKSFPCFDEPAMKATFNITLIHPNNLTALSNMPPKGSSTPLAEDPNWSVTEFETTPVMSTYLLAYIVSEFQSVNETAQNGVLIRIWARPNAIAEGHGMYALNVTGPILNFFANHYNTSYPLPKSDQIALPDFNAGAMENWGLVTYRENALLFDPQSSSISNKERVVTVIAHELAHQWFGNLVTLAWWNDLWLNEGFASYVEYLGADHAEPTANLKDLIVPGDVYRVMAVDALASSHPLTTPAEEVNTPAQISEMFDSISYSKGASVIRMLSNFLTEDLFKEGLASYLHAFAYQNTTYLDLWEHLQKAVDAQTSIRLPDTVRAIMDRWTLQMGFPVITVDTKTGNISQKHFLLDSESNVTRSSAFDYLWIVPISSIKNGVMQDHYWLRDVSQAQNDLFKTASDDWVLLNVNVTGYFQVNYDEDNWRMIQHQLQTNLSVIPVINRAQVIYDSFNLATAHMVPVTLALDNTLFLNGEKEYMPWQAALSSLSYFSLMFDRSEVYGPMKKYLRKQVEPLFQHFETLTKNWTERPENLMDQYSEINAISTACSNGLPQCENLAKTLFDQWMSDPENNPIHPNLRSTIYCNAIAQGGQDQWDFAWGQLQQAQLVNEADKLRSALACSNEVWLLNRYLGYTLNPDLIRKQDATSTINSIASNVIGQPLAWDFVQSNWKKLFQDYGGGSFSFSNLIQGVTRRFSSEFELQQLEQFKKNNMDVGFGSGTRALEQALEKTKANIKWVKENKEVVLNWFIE

[2] = biological target: porcine aminopeptidase N ectodomain, wild type (pig) (UniProt P15145)
porcine aminopeptidase N ectodomain, wild type (pig), sequence (P15145 58-961): as the sequence (P15145 58-961 W424A) above, with A367W counted along it

[3] = biological target: human aminopeptidase N ectodomain K379A (human) (UniProt P15144)
human aminopeptidase N ectodomain K379A (human), sequence (P15144 62-963 K379A): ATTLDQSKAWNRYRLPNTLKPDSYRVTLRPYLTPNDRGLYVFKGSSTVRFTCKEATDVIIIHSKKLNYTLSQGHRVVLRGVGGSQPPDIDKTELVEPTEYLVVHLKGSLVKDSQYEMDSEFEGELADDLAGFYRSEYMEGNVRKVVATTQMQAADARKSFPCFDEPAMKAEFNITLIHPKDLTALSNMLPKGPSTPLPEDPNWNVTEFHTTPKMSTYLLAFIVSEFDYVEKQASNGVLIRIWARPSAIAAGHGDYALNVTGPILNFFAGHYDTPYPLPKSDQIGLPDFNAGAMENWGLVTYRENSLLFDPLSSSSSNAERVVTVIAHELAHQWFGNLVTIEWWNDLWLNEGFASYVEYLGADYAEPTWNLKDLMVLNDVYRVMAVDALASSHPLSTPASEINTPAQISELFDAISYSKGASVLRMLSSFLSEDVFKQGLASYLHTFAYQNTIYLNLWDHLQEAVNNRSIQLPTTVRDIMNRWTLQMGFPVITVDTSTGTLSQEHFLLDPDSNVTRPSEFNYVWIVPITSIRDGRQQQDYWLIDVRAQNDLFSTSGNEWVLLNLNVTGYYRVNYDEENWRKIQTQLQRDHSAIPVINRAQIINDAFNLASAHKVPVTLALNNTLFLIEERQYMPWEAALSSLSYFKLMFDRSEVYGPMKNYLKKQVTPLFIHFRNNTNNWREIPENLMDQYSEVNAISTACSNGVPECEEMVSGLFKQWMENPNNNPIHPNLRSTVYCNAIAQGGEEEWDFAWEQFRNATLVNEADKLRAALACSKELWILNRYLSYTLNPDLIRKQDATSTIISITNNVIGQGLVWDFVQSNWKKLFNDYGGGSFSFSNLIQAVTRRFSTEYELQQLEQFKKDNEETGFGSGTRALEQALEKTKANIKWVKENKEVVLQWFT

[4] = biological target: human aminopeptidase N ectodomain Y316A (human) (UniProt P15144)
human aminopeptidase N ectodomain Y316A (human), sequence (P15144 62-963 Y316A): as the sequence (P15144 62-963 K379A) above, with Y255A, A318K counted along it

[5] = biological target: human aminopeptidase N ectodomain E426A (human) (UniProt P15144)
human aminopeptidase N ectodomain E426A (human), sequence (P15144 62-963 E426A): as the sequence (P15144 62-963 K379A) above, with A318K, E365A counted along it

[6] = biological target: human aminopeptidase N ectodomain H789A (human) (UniProt P15144)
human aminopeptidase N ectodomain H789A (human), sequence (P15144 62-963 H789A): as the sequence (P15144 62-963 K379A) above, with A318K, H728A counted along it

[7] = biological target: human aminopeptidase N ectodomain, wild type (human) (UniProt P15144)
human aminopeptidase N ectodomain, wild type (human), sequence (P15144 62-963): as the sequence (P15144 62-963 K379A) above, with A318K counted along it

[8] = biological target: human aminopeptidase N ectodomain E745A (human) (UniProt P15144)
human aminopeptidase N ectodomain E745A (human), sequence (P15144 62-963 E745A): as the sequence (P15144 62-963 K379A) above, with A318K, E684A counted along it

[9] = biological target: human aminopeptidase N ectodomain E742A (human) (UniProt P15144)
human aminopeptidase N ectodomain E742A (human), sequence (P15144 62-963 E742A): as the sequence (P15144 62-963 K379A) above, with A318K, E681A counted along it

[10] = biological target: porcine aminopeptidase N ectodomain E421A (pig) (UniProt P15145)
porcine aminopeptidase N ectodomain E421A (pig), sequence (P15145 58-961 E421A): as the sequence (P15145 58-961 W424A) above, with E364A, A367W counted along it

[11] = biological target: human aminopeptidase N ectodomain W429A (human) (UniProt P15144)
human aminopeptidase N ectodomain W429A (human), sequence (P15144 62-963 W429A): as the sequence (P15144 62-963 K379A) above, with A318K, W368A counted along it

PDCoV RBD (receptor binding domain of the porcine deltacoronavirus spike protein), wild type (domain or fragment)
Kd [1]: 113 µM and 119 µM | Kd [2]: 42 µM and 46.5 µM | Kd [3]: 516 µM and 371 µM | Kd [4]: 35.7 µM and 38.5 µM | Kd [5]: 305 µM and 362 µM | Kd [6]: 6.47 µM and 6.03 µM | Kd [7]: 3.76 µM and 3.66 µM | Kd [8]: 3.13 µM and 3 µM | Kd [9]: 14.3 µM and 13.2 µM | Kd [10]: 103 µM and 146 µM | Kd [11]: 158 µM and 97 µM
